# From publication PMC3794606, “Transactivation specificity is conserved among p53 family proteins and depends on a response element sequence code” (Nucleic Acids Research, 2013)
# T1: p73 DBD S139F (human, UniProt O15350 115-312, S139F)
# T1 sequence: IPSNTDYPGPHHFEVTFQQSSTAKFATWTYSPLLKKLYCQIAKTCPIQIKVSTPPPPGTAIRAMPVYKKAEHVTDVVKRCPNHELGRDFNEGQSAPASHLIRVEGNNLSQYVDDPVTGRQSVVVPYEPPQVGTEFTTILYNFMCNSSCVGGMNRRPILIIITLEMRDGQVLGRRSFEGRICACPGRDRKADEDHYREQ
# T2: deltaNp73delta isoform WT (UniProt O15350-4 63-403)
# T2 sequence: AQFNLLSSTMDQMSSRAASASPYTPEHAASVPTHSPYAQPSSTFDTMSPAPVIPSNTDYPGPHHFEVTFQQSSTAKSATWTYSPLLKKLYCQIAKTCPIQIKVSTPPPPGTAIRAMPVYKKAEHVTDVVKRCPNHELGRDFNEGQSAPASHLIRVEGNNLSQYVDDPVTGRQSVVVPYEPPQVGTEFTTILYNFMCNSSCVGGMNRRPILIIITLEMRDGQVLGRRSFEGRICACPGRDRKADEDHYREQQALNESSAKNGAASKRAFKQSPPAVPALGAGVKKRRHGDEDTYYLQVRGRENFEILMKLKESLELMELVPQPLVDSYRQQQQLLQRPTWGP
# What was measured:
# [1] = target: T1, p73 DBD S139F; assay: fluorescence polarization; Hill 1.7 ± 0.1; FP: 50 nM fluorescein-DNA, 0-20000 nM protein, 30 min on ice then room temperature; buffer, salt and pH not stated. Crystals: 0.1 M Tris pH 8.5, 50-125 mM sodium acetate, 20-24% PEG 3350, room temperature; settings: protein: recombinant; chain copies: 2; label: fluorescein; self-complementary
# [2] = target: T2, deltaNp73delta isoform WT; assay: fluorescence polarization; FP: 50 nM fluorescein-DNA, 0-20000 nM protein, 30 min on ice then room temperature; buffer, salt and pH not stated. Crystals: 0.1 M Tris pH 8.5, 50-125 mM sodium acetate, 20-24% PEG 3350, room temperature; settings: protein: recombinant, chain copies: 4, label: fluorescein
# [3] = target: the molecule itself; assay: crystal structure; p73DBD S139F mixed at 2:1 molar ratio with annealed 20 bp DNA (…); hanging drop, 0.1 M Tris pH 8.5, 50-125 mM sodium acetate, 20-24% PEG 3350, room temperature; 3.7 A; asymmetric unit holds two protein molecules and one 10 bp half-site, the tetramer is made by crystal symmetry
# [4] = target: T1, p73 DBD S139F; assay: fluorescence polarization; Hill 1.9 ± 0.2; FP: 50 nM fluorescein-DNA, 0-20000 nM protein, 30 min on ice then room temperature; buffer, salt and pH not stated. Crystals: 0.1 M Tris pH 8.5, 50-125 mM sodium acetate, 20-24% PEG 3350, room temperature; settings: protein: recombinant; chain copies: 2; label: fluorescein
# [5] = target: T1, p73 DBD S139F; assay: fluorescence polarization; Hill 1.5 ± 0.2; FP: 50 nM fluorescein-DNA, 0-20000 nM protein, 30 min on ice then room temperature; buffer, salt and pH not stated. Crystals: 0.1 M Tris pH 8.5, 50-125 mM sodium acetate, 20-24% PEG 3350, room temperature; settings: protein: recombinant; chain copies: 2; label: fluorescein; self-complementary
binder,measurement,setting,value
20mer GAACA full-site (0/4 RY) (dsDNA) DNA 1: GAACATGTTCGAACATGTTC DNA 2: GAACATGTTCGAACATGTTC,Kd,[1],4480 nM
same,Kd,[2]; self-complementary,940 nM
"p73DBD S139F (human p73 DNA-binding domain, residues 115-312, S139F mutant) (domain or fragment, UniProt O15350 115-312, looked up, Crystallised with a 20 bp GAACA full-site DNA; On the DNA it forms a tetramer (dimer of dimers); also called p73 S139F DBD; S139F DBD mutant) IPSNTDYPGPHHFEVTFQQSSTAKFATWTYSPLLKKLYCQIAKTCPIQIKVSTPPPPGTAIRAMPVYKKAEHVTDVVKRCPNHELGRDFNEGQSAPASHLIRVEGNNLSQYVDDPVTGRQSVVVPYEPPQVGTEFTTILYNFMCNSSCVGGMNRRPILIIITLEMRDGQVLGRRSFEGRICACPGRDRKADEDHYREQ",stoichiometry N,[3],4
20mer GGGCA full-site (4/4 RY) (dsDNA) DNA 1: GGGCATGCCCGGGCATGCCC DNA 2: GGGCATGCCCGGGCATGCCC,Kd,[4],230 nM
same,Kd,[2],160 nM
12mer GGGCA half-site (dsDNA) DNA 1: TGGGCATGCCCA DNA 2: TGGGCATGCCCA,Kd,[5],1540 nM
